Test results taken from US20240024383A1, “ENGINEERED PROBIOTIC COMPOSITIONS AND USES THEREOF” (priority 2020, published 2024).
“Also recorded” adds a separate entry of the source.

Key:
[1] = system: C. difficile; experiment: Mouse model for parenteral ampicillin-induced disruption of colonization resistance against C. difficile; type: in vivo, C57BL/6 mice; details: single daily dose, 200 mg/kg intraperitoneal, 3 days, 5×10^3 spores 24 hours after last dose
Protocol: FIGS. 7A-7C. Mouse model for parenteral ampicillin-induced dysbiosis and the disruption of colonization resistance against C. difficile. FIG. 7A. A 3-day intraperitoneal ampicillin administration regimen is evaluated for its effects in abolishing colonization resistance against 5×10^3 spores of C. difficile at 24 hours after the last ampicillin dose. C. difficile density in feces is evaluated 24 hours after the infection. FIG. 7B. […] FIG. 7C. Dose-dependency of single daily intraperitoneal ampicillin injections in the disruption of colonization resistance against C. difficile.
L. lactis spTEM1 protects the diversity and composition of gut the microbiota in an ampicillin-induced dysbiosis murine model. To test the efficacy of L. lactis spTEM1 in preventing ampicillin-induced dysbiosis, a mouse model was developed that utilizes susceptibility to C. difficile infection as an endpoint indication of gut dysbiosis. […] Based on this antibiotic regimen, the inventors devised a probiotic intervention aimed at populating the mouse gut with L. lactis spTEM1 while ampicillin circulates in the body (FIG. 3A). […]
C. difficile infection. […] The number of colony forming units (CFU) was counted using TCCFA plates supplemented with 50 μg/mL Erythromycin at 37° C. under anaerobic conditions, as previously reported.^26

[2] = system: E. coli; experiment: Cell density-dependent survival/growth on ampicillin, E. coli expressing spTEM1 elements; type: cell-based, Escherichia coli
Description: FIGS. 2A-2B. […] FIG. 2A. Cell density-dependent growth on ampicillin. β-lactamases in the periplasm of Gram-negative bacteria i.e. E. coli, confer selective advantage to single-cells. Survival to ampicillin is an emergent property of the of the L. lactis spTEM1 population and not of single cells. Diffusion from the cell surface precludes protection to the producer cell when the population density is low. FIG. 2B. Estimation of the ampicillin survival density threshold in prototypical Gram-negative and Gram-positive strains expressing elements of the spTEM1 system.
The spTEM1 β-lactamase system is not amenable to HGT. Stable acquisition of a new genetic trait by HGT requires both the physical mobilization of DNA into the recipient cell and that the expression of the newly obtained genetic material provides enough selective advantage to outcompete the rest of the population. While encoding the spTEM1 β-lactamase system in separate genetic loci reduces the likelihood of transfer to a single recipient cell, the scenario of simultaneous acquisition of the two β-lactamase fragments cannot be completely ruled out. The inventors investigated whether stable acquisition of the spTEM1 β-lactamase genes to a Gram-negative bacterium confers a fitness advantage in the presence of ampicillin.
Bacterial strains. […]

[3] = target: T1, β lactamase fragment (BLF) 2 of TEM1 β-lactamase, without SpyCatcher
T1 chain: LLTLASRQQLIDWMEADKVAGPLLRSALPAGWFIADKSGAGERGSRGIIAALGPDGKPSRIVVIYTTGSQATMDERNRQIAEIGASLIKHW

[4] = Nitrocefin hydrolysis assay for β-lactamase activity in culture supernatants; type: biochemical; details: 0.1 mM nitrocefin, absorbance at 486 nm
Description: A L. lactis strain was generated that is able to inactivate β-lactam antibiotics in its surroundings by secreting a split enzyme that is encoded in a two-gene biosynthesis pathway. By splitting β-lactam degradation into a genetically unlinked trait the selective advantage conferred upon a single locus was removed, thereby limiting the possible spread of the engineered trait in the population through a single HGT event. To achieve this, a heterodimeric version of the TEM1 β-lactamase (spTEM1) that regains its activity when reconstituted in the extracellular environment was generated.
β-lactamase assay. Nitrocefin (BioVision) was dissolved in DMSO to make a 1 mM stock. It was added to samples bacterial culture supernatant in a clear-bottom 96-well plate to a final concentration of 0.1 mM. The plate was placed in a spectrophotometer SpectraMaX™ M5 (Molecular Devices) to read absorbance at 486 nm over time.

CC1(C)S[C@@H]2[C@H](NC(=O)[C@H](N)c3ccccc3)C(=O)N2[C@H]1C(=O)O [ampicillin]
disruption of colonization resistance against C. difficile [1]: sufficient to abrogate colonization resistance; also recorded: enough to sensitize the mouse gut to robust C. difficile colonization

B1: TEM1 β-lactamase: Intact TEM1 β-lactamase with periplasmic localization in E. coli (protein, UniProt P62593 24-286, looked up)
Beta-lactamase TEM: HPETLVKVKDAEDQLGARVGYIELDLNSGKILESFRPEERFPMMSTFKVLLCGAVLSRVDAGQEQLGRRIHYSQNDLVEYSPVTEKHLTDGMTVRELCSAAITMSDNTAANLLLTTIGGPKELTAFLHNMGDHVTRLDRWEPELNEAIPNDERDTTMPAAMATTLRKLLTGELLTLASRQQLIDWMEADKVAGPLLRSALPAGWFIADKSGAGERGSRGIIAALGPDGKPSRIVVIYTTGSQATMDERNRQIAEIGASLIKHW
growth in ampicillin as single colonies [2]: enables the growth in ampicillin as single colonies

B2: β lactamase fragment (BLF) 1 of TEM1 β-lactamase, without SpyTag (protein)
chain: MHPETLVKVKDAEDQLGARVGYIELDLNSGKILESFRPEERFPMMSTFKVLLCGAVLSRIDAGQEQLGRRIHYSQNDLVEYSPVTEKHLTDGMTVRELCSAAITMSDNTAANLLLTTIGGPKELTAFLHNMGDHVTRLDRWEPELNEAIPNDERDTTTPVAMATTLRKLLTG
β-lactamase activity in culture supernatants (nitrocefin) [3]: slow in reconstituting and show minimal β-lactamase activity

B3: ST-BLF-1: SpyTag fused to TEM1 β-lactamase fragment BLF1 with usp45 secretion signal (SEQ ID NO: 4) (protein)
chain: MKKKIISAILMSTVILSAAAPLSGVYAAHIVMVDAYKPTKGGGGSGGGGSMHPETLVKVKDAEDQLGARVGYIELDLNSGKILESFRPEERFPMMSTFKVLLCGAVLSRIDAGQEQLGRRIHYSQNDLVEYSPVTEKHLTDGMTVRELCSAAITMSDNTAANLLLTTIGGPKELTAFLHNMGDHVTRLDRWEPELNEAIPNDERDTTTPVAMATTLRKLLTG
β-lactamase activity (nitrocefin hydrolysis) [4]: do not display β-lactamase activity
